# Measured values published in patent publication US11945858B2, “Antibodies and antibody fragments against HNAV1.7 channel and their use in pain and cancer indications” (NATIONAL RESEARCH COUNCIL OF CANADA, priority 2018, dated 2024).
# B1: 3A8: anti-hNav1.7 mouse monoclonal antibody, IgG2a, k; heavy chain SEQ ID NO: 12, light chain SEQ ID NO: 18 (antibody, V domains shown)
# VH: QVQLQQPGAELVKPGASVKLSCKASGYTFTNYWMHWVKQRPGQGLEWIGEINPSNGRANYNEKFKSKATLTVDKSSSTAYMQLSSLTSEDSAVYYCARSPYGYYDYWGQGTTLTVSSAKTTAPSVYPLAP
# VL: DVLMTQTPLSLPVSLGDQASISCRSSQSLLHSNGNTYFHWYLQKPGQSPKLLIYKVSNRFFGVPDRFSGSGSGTDFTLKISRVEAEDLGVYFCSQITHVPLTFGAGTKLELKRADAAPTVSIFPPSS
# modifications: Heavy chain of the 3A8 antibody without leader sequence; Light chain of the 3A8 antibody without leader sequence
# Legend:
# [1] = test system: CFA-induced thermal hyperalgesia; test: Hargreaves Model of Hyperalgesia in rats; assay type: in vivo, rat
# In short: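 Rats aged 4-6 weeks (180-220 g) received 50 μl of complete Freund's adjuvant, an emulsion of heat-killed M. tuberculosis in oil:saline 2:1, into the right hind paw to produce inflammatory pain. Baseline paw withdrawal latency was recorded 48 h later, and test antibodies were then given by intraplantar injection.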
# [2] = test system: overlapping antigen-peptides derived from DIE3IR; test: ELISA of mAbs on overlapping antigen-peptides derived from DIE3IR; assay type: binding, human; conditions: peptides coated 100-500 ng/well
# Description: The peptides were custom-synthesized (Biomatik) and tested for antibody binding by ELISA. […] The wells were blocked with 1% BSA in TBS-T for 30 min and then incubated with 1:1000 dilution of anti-hNav1.7 mAb at room temperature (RT) for one hr. Following three TBS-T washes (3×5 min), mAb binding to peptides was detected by incubating with HRP-conjugated anti-mouse Fc antibody for 90 min at RT in TBS-T. The bound antibody was detected with SureBlue™ TMB reagent kit (KPL) by colorimetric measurement at 450 nm according to manufacturer's instructions.
# To identify the epitope for mAb 3A8 on DIE3IR, seven overlapping antigen-peptides were generated (FIG. 15A) and an ELISA was performed to determine the binding between these peptides and the various mAb (FIGS. 15C to 15I).
molecule,measurement,setting,value
B1,Percentage of effect after injection (on left paw withdrawal),"[1]; 50 μg intraplantar, 0 h",0%
same,Latency paw withdrawal,"[1]; 50 μg intraplantar, 1 h",6.08 ± 0.70 s
same,Percentage of effect after injection (on left paw withdrawal),"[1]; 50 μg intraplantar, 1 h",18.00%
same,Latency paw withdrawal,"[1]; 50 μg intraplantar, 2 h",7.38 ± 0.67 s
same,Percentage of effect after injection (on left paw withdrawal),"[1]; 50 μg intraplantar, 2 h",24.09%
same,Latency paw withdrawal,"[1]; 50 μg intraplantar, 4 h",6.79 ± 0.50 s
same,Percentage of effect after injection (on left paw withdrawal),"[1]; 50 μg intraplantar, 4 h",22.40%
same,Maximum effect (% Effect),"[1]; 50 μg intraplantar, reached 2 hours after injection",24.09±3.69%
same,Percentage of effect after injection (on left paw withdrawal),"[1]; 100 μg intraplantar, 0 h",0%
same,Latency paw withdrawal,"[1]; 100 μg intraplantar, 1 h",9.56 ± 0.70 s
same,Percentage of effect after injection (on left paw withdrawal),"[1]; 100 μg intraplantar, 1 h",33.96%
same,Latency paw withdrawal,"[1]; 100 μg intraplantar, 2 h",10.58 ± 0.90 s
same,Percentage of effect after injection (on left paw withdrawal),"[1]; 100 μg intraplantar, 2 h",40.55%
same,Latency paw withdrawal,"[1]; 100 μg intraplantar, 4 h",10.28 ± 1.20 s
same,Percentage of effect after injection (on left paw withdrawal),"[1]; 100 μg intraplantar, 4 h",40.18%
same,Maximum percentage of the effect (% Effect; % MPE),"[1]; 100 μg intraplantar, time of maximum (1, 2 or 4 h)",40.55±2.20%
same,Duration of the reversal of hyperalgesia,[1]; 30 mg/kg intravenous,up to 24 h
same,Reversal of CFA-induced hyperalgesia (in words),[1]; 30 mg/kg intravenous,able to reverse CFA-induced hyperalgesia
same,Percentage of the maximum possible effect (% MPE),"[1]; 30 mg/kg intravenous (tail vein), 4 h",26.60±3.26%
same,Latency paw withdrawal time,[1]; 3A8 alone 75 μg intraplantar (FIG. 18),10.59 ± 0.87 s
same,Reversal of hyperalgesia (% MPE),"[1]; 3A8 alone 75 μg intraplantar, 4 h",35.35%±4.44
same,Latency paw withdrawal,"[1]; intraplantar injection, 4 hours after administration (FIG. 10)",8.50 ± 0.94 s
same,Peptide in which the binding motif resides / that is bound,[2],pep #2a
